Laboratory results published in publication PMC4658161, “Mutually Exclusive Roles of SHARPIN in Integrin Inactivation and NF-κB Signaling” (PLoS ONE, 2015).

B1: GST-SHARPIN^WT [not stated] / recombinant RNF31 [not stated] (parent complex)
chain 1: MAPPAGGAAAAASDLGSAAVLLAVHAAVRPLGAGPDAEAQLRRLQLSADPERPGRFRLELLGAGPGAVNLEWPLESVSYTIRGPTQHELQPPPGGPGTLSLHFLNPQEAQRWAVLVRGATVEGQNGSKSNSPPALGPEACPVSLPSPPEASTLKGPPPEADLPRSPGNLTEREELAGSLARAIAGGDEKGAAQVAAVLAQHRVALSVQLQEACFPPGPIRLQVTLEDAASAASAASSAHVALQVHPHCTVAALQEQVFSELGFPPAVQRWVIGRCLCVPERSLASYGVRQDGDPAFLYLLSAPREAPATGPSPQHPQKMDGELGRLFPPSLGLPPGPQPAASSLPSPLQPSWSCPSCTFINAPDRPGCEMCSTQRPCTWDPLAAAST
chain 2: MPGEEEERAFLVAREELASALRRDSGQAFSLEQLRPLLASSLPLAARYLQLDAARLVRCNAHGEPRNYLNTLSTALNILEKYGRNLLSPQRPRYWRGVKFNNPVFRSTVDAVQGGRDVLRLYGYTEEQPDGLSFPEGQEEPDEHQVATVTLEVLLLRTELSLLLQNTHPRQQALEQLLEDKVEDDMLQLSEFDPLLREIAPGPLTTPSVPGSTPGPCFLCGSAPGTLHCPSCKQALCPACDHLFHGHPSRAHHLRQTLPGVLQGTHLSPSLPASAQPRPQSTSLLALGDSSLSSPNPASAHLPWHCAACAMLNEPWAVLCVACDRPRGCKGLGLGTEGPQGTGGLEPDLARGRWACQSCTFENEAAAVLCSICERPRLAQPPSLVVDSRDAGICLQPLQQGDALLASAQSQVWYCIHCTFCNSSPGWVCVMCNRTSSPIPAQHAPRPYASSLEKGPPKPGPPRRLSAPLPSSCGDPEKQRQDKMREEGLQLVSMIREGEAAGACPEEIFSALQYSGTEVPLQWLRSELPYVLEMVAELAGQQDPGLGAFSCQEARRAWLDRHGNLDEAVEECVRTRRRKVQELQSLGFGPEEGSLQALFQHGGDVSRALTELQRQRLEPFRQRLWDSGPEPTPSWDGPDKQSLVRRLLAVYALPSWGRAELALSLLQETPRNYELGDVVEAVRHSQDRAFLRRLLAQECAVCGWALPHNRMQALTSCECTICPDCFRQHFTIALKEKHITDMVCPACGRPDLTDDTQLLSYFSTLDIQLRESLEPDAYALFHKKLTEGVLMRDPKFLWCAQCSFGFIYEREQLEATCPQCHQTFCVRCKRQWEEQHRGRSCEDFQNWKRMNDPEYQAQGLAMYLQENGIDCPKCKFSYALARGGCMHFHCTQCRHQFCSGCYNAFYAKNKCPEPNCRVKKSLHGHHPRDCLFYLRDWTALRLQKLLQDNNVMFNTEPPAGARAVPGGGCRVIEQKEVPNGLRDEACGKETPAGYAGLCQAHYKEYLVSLINAHSLDPATLYEVEELETATERYLHVRPQPLAGEDPPAYQARLLQKLTEEVPLGQSIPRRRK

Variants of: B1
Test: ELISA-based binding assay; n = 3; parent: 1; read off a plot

Variant	response
chain 1 L261A, chain 1 F263A	~0.7 Abs 450nm
chain 1 V267A	~0.69 Abs 450nm

Results, then the variant that gave them:

response	Variant
~0.49 Abs 450nm	chain 1 L276A
~0.45 Abs 450nm	chain 1 I272A
